Test results published in article PMC8099091, “Heterogeneous multimeric structure of isocitrate lyase in complex with succinate and itaconate provides novel insights into its inhibitory mechanism” (PLoS ONE, 2021).

Target: the molecule itself
Experiment: SEC-MALS; Superdex 200 Increase 10/300 GL, 20 mM Tris-HCl pH 8.0, 150 mM NaCl, 0.4 mL/min, 20°C; repeated under various conditions with the same results

B1: isocitrate lyase from Mycobacterium tuberculosis (tbICL) (enzyme)
chain: MSVVGTPKSAEQIQQEWDTNPRWKDVTRTYSAEDVVALQGSVVEEHTLARRGAEVLWEQLHDLEWVNALGALTGNMAVQQVRAGLKAIYLSGWQVAGDANLSGHTYPDQSLYPANSVPQVVRRINNALQRADQIAKIEGDTSVENWLAPIVADGEAGFGGALNVYELQKALIAAGVAGSHWEDQLASEKKCGHLGGKVLIPTQQHIRTLTSARLAADVADVPTVVIARTDAEAATLITSDVDERDQPFITGERTREGFYRTKNGIEPCIARAKAYAPFADLIWMETGTPDLEAARQFSEAVKAEYPDQMLAYNCSPSFNWKKHLDDATIAKFQKELAAMGFKFQFITLAGFHALNYSMFDLAYGYAQNQMSAYVELQEREFAAEERGYTATKHQREVGAGYFDRIATTVDPNSSTTALTGSTEEGQFH
notes: Tetramer in solution by SEC-MALS; dimer (subunits A and B) in the asymmetric unit, tetramer by twofold crystal symmetry; Theoretical monomer mass 47.08 kDa including the C-terminal His-tag; also called tbICL1; isocitrate lyase isoform 1; not shown: His-tag, C-terminal, kept
  stoichiometry N: 4
